5 proteins from PMC1868955, “Crystal Structure of the P Pilus Rod Subunit PapA” (PLoS Pathogens, 2007) can be followed below.

Series [1] concerns the molecule itself. As to the kind of experiment: SEC; gel filtration of co-expressed PapDHis/PapA complexes immediately after purification; Superdex75 120 ml, 20 mM TrisHCl pH 7.5, 20 mM NaCl. A general note: Size exclusion chromatography separates by hydrodynamic size, large species first.
Series [2] deals with the molecule itself. As to the kind of experiment: negative-stain electron microscopy; PapD/PapA samples frozen and thawed five times at 150 μg/ml in 10–20 mM TrisHCl pH 7.6, 20–50 mM NaCl; used the same day or kept at 4 °C up to 40 d; 1% uranyl acetate.

B1: PapA G15N (natural protein)
chain: APTIPQGQGKVTFNNTVVDAPCSISQKSADQSIDFGQLSKSFLEAGGVSKPMDLDIELVNCDITAFKGGNGAKKGTVKLAFTGPIVNGHSDELDTNGGTGTAIVVQGAGKNVVFDGSEGDANTLKDGENVLHYTAVVKKSSAVGAAVTEGAFSAVANFNLTYQ
notes: source: E. coli C600, co-expressed with PapDHis
As to B1, the binding result in series [1] is “binds”.

B2: PapA I4G G15N (natural protein)
chain: APTGPQGQGKVTFNNTVVDAPCSISQKSADQSIDFGQLSKSFLEAGGVSKPMDLDIELVNCDITAFKGGNGAKKGTVKLAFTGPIVNGHSDELDTNGGTGTAIVVQGAGKNVVFDGSEGDANTLKDGENVLHYTAVVKKSSAVGAAVTEGAFSAVANFNLTYQ
notes: as for B1
On to B2, for which the binding result in series [1] is listed as “binds”.

B3: PapA I4G (natural protein)
chain: APTGPQGQGKVTFNGTVVDAPCSISQKSADQSIDFGQLSKSFLEAGGVSKPMDLDIELVNCDITAFKGGNGAKKGTVKLAFTGPIVNGHSDELDTNGGTGTAIVVQGAGKNVVFDGSEGDANTLKDGENVLHYTAVVKKSSAVGAAVTEGAFSAVANFNLTYQ
notes: as for B1
As for B3, the binding result in series [2] was “binds”.

B4: PapA Ntd1 (residues 2 to 8 deleted) (natural protein)
chain: AGKVTFNGTVVDAPCSISQKSADQSIDFGQLSKSFLEAGGVSKPMDLDIELVNCDITAFKGGNGAKKGTVKLAFTGPIVNGHSDELDTNGGTGTAIVVQGAGKNVVFDGSEGDANTLKDGENVLHYTAVVKKSSAVGAAVTEGAFSAVANFNLTYQ
notes: also called Ntd1 (Δ2–8); source: E. coli C600, co-expressed with PapDHis
For B4, in series [1], the binding result is on record as “binds”.

B5: PapA Ntd1 G15N T101L (residues 2 to 8 deleted, G15N, T101L) (natural protein)
chain: AGKVTFNNTVVDAPCSISQKSADQSIDFGQLSKSFLEAGGVSKPMDLDIELVNCDITAFKGGNGAKKGTVKLAFTGPIVNGHSDELDTNGGTGLAIVVQGAGKNVVFDGSEGDANTLKDGENVLHYTAVVKKSSAVGAAVTEGAFSAVANFNLTYQ
notes: Two copies stand in the PapD/(PapA)2 complex: one donor-strand complemented by PapD (dscPapA), one donor-strand exchanged with the Nte of the first (dsePapA); also called dscPapA; dsePapA; source: E. coli C600, co-expressed with PapDHis
For the protein B5, in series [1], the binding result is reported as “binds”.
